# Target: trimerized [change]-Tag (A/duck/Viet Nam/TG24-01/2005 (H5N1))
# Assay: cell-based or functional assay
Substance,"hemagglutination unit (HAU), co-expression with H5-S-Tag in plants in vivo","hemagglutination unit (HAU), combination with H5-S-Tag in vitro"
S-Protein-GCN4 (reference 2),2 HAU,0 HAU
S-Protein-pII (reference 1),0 HAU,0 HAU
wild type S-Protein (from UniProt P61823 47-150),4 HAU,0 HAU
